Data from PMC4461315, “A Mutant Library Approach to Identify Improved Meningococcal Factor H Binding Protein Vaccine Antigens” (PLoS ONE, 2015).

Target: T1, human complement Factor H (human, UniProt P08603 19-1231)
T1 construct: also called FH; human FH; source: bought: Complement Technologies (purified human FH)
Assay: SPR
Settings: both partners purified

T1 sequence (P08603 19-1231): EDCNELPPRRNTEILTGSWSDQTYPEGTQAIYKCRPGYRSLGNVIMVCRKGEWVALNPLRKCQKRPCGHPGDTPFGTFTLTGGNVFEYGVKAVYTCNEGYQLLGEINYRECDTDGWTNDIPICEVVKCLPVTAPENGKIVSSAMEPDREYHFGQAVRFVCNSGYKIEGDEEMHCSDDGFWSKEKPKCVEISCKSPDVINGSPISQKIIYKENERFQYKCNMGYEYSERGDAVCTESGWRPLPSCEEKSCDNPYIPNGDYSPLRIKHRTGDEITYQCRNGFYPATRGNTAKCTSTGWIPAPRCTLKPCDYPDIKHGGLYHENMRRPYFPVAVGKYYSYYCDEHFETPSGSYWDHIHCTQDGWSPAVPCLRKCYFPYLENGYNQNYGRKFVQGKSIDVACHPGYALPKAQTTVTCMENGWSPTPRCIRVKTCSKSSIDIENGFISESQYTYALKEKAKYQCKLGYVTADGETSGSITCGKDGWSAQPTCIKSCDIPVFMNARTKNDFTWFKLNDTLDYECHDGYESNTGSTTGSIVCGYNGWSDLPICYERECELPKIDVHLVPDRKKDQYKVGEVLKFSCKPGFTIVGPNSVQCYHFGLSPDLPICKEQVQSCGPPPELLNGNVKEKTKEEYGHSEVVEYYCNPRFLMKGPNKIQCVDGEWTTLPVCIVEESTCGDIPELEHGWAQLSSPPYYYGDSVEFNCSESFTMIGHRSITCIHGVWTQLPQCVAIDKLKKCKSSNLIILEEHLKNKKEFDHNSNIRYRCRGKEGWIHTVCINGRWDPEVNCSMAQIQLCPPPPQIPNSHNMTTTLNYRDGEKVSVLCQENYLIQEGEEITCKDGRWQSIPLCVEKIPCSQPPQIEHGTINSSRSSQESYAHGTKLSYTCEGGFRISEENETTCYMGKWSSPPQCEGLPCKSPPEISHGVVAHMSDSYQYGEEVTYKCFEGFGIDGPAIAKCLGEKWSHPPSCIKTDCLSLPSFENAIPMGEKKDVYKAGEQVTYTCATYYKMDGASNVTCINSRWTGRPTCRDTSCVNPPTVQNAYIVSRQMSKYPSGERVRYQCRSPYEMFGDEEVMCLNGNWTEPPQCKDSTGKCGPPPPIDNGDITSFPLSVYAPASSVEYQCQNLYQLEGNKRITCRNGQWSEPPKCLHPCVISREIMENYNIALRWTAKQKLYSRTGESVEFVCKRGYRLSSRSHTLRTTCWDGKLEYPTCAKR

B1: wild-type FHbp ID 1, soluble recombinant (natural protein)
chain: CSSGGGGVAADIGAGLADALTAPLDHKDKGLQSLTLDQSVRKNEKLKLAAQGAEKTYGNGDSLNTGKLKNDKVSRFDFIRQIEVDGQLITLESGEFQVYKQSHSALTAFQTEQIQDSEHSGKMVAKRQFRIGDIAGEHTSFDKLPEGGRATYRGTAFGSDDAGGKLTYTIDFAAKQGNGKIEHLKSPELNVDLAAADIKPDGKRHAVISGSVLYNQAEKGSYSLGIFGGKAQEVAGSAEVKTVNGIRHIGLAAKQ
notes: also called WT
  Kd: 17 nM
